Data on 9 molecules can be found in patent publication US20140271457A1 (AbbVie / Abbott, published 2014).

The target of this test is Recombinant Human TNF-α/TNFSF1A (human, UniProt P01375 77-233). The test can be described thus: cell-based or functional assay.
Recombinant Human TNF-α/TNFSF1A, sequence (P01375 77-233 limits assumed): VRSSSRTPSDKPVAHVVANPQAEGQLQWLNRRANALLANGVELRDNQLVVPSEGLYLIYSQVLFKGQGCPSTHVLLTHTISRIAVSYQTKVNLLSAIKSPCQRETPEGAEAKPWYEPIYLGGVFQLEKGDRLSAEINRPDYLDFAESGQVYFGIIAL

B1: DVD2789 (bispecific antibody, IgG1)
VH: EVTLRESGPGLVKPTQTLTLTCTLYGFSLSTSDMGVDWIRQPPGKGLEWLAHIWWDDVKRYNPALKSRLTISKDTSKNQVVLKLTSVDPVDTATYYCARTVSSGYIYYAMDYWGQGTLVTVSSASTKGPEVQLVQSGAEVKKPGASVKVSCKASGYTFANYGIIWVRQAPGQGLEWMGWINTYTGKPTYAQKFQGRVTMTTDTSTSTAYMELSSLRSEDTAVYYCARKLFTTMDVTDNAMDYWGQGTTVTVSS
VL: DIQMTQSPSSLSASVGDRVTISCRASQDIRNYLNWYQQKPGKAPKLLIFYTSKLHSGVPSRFSGSGSGTDYTLTISSLQPEDIATYYCQQGLTPPLTFGGGTKVEIKRTVAAPDIQMTQSPSSLSASVGDRVTITCRASQDISQYLNWYQQKPGKAPKLLIYYTSRLQSGVPSRFSGSGSGTDFTLTISSLQPEDFATYFCQQGNTWPPTFGQGTKLEIKR
B1: the “C-Terminal VD huTNFα Neutralization Assay IC50” value was determined as 0.186 nM.

B2: DVD2791 (bispecific antibody, IgG1)
VH: B1 VH
VL: DIQMTQSPSSLSASVGDRVTISCRASQDIRNYLNWYQQKPGKAPKLLIFYTSKLHSGVPSRFSGSGSGTDYTLTISSLQPEDIATYYCQQGLTPPLTFGGGTKVEIKRTVAAPSVFIFPPDIQMTQSPSSLSASVGDRVTITCRASQDISQYLNWYQQKPGKAPKLLIYYTSRLQSGVPSRFSGSGSGTDFTLTISSLQPEDFATYFCQQGNTWPPTFGQGTKLEIKR
Turning to B2, the “C-Terminal VD huTNFα Neutralization Assay IC50” value was found to be 0.064 nM.

B3: DVD2741 (bispecific antibody, IgG1)
VH: EVTLRESGPGLVKPTQTLTLTCTLYGFSLSTSDMGVDWIRQPPGKGLEWLAHIWWDDVKRYNPALKSRLTISKDTSKNQVVLKLTSVDPVDTATYYCARTVSSGYIYYAMDYWGQGTLVTVSSASTKGPEVQLVESGGGLVQPGGSLRLSCAASGFTFSNYGVEWVRQAPGKGLEWVSGIWADGSTHYADTVKSRFTISRDNSKNTLYLQMNSLRAEDTAVYYCAREWQHGPVAYWGQGTLVTVSS
VL: DIQMTQSPSSLSASVGDRVTISCRASQDIRNYLNWYQQKPGKAPKLLIFYTSKLHSGVPSRFSGSGSGTDYTLTISSLQPEDIATYYCQQGLTPPLTFGGGTKVEIKRTVAAPSVFIFPPDIQMTQSPSSLSASVGDRVTITCKASQLVSSAVAWYQQKPGKAPKLLIYWASTLHTGVPSRFSGSGSGTDFTLTISSLQPEDFATYYCQQHYRTPFTFGQGTKLEIKR
Regarding B3, the “C-Terminal VD huTNFα Neutralization Assay IC50” value turned out to be 0.202 nM.

B4: DVD2784 (bispecific antibody, IgG1)
VH: EVQLVQSGAEVKKPGASVKVSCKASGYTFANYGIIWVRQAPGQGLEWMGWINTYTGKPTYAQKFQGRVTMTTDTSTSTAYMELSSLRSEDTAVYYCARKLFTTMDVTDNAMDYWGQGTTVTVSSASTKGPEVTLRESGPGLVKPTQTLTLTCTLYGFSLSTSDMGVDWIRQPPGKGLEWLAHIWWDDVKRYNPALKSRLTISKDTSKNQVVLKLTSVDPVDTATYYCARTVSSGYIYYAMDYWGQGTLVTVSS
VL: DIQMTQSPSSLSASVGDRVTITCRASQDISQYLNWYQQKPGKAPKLLIYYTSRLQSGVPSRFSGSGSGTDFTLTISSLQPEDFATYFCQQGNTWPPTFGQGTKLEIKRTVAAPDIQMTQSPSSLSASVGDRVTISCRASQDIRNYLNWYQQKPGKAPKLLIFYTSKLHSGVPSRFSGSGSGTDYTLTISSLQPEDIATYYCQQGLTPPLTFGGGTKVEIKR
As to B4, the “N-Terminal VD huTNFα Neutralization Assay IC50” value worked out at 6 pM.

B5: DVD2786 (bispecific antibody, IgG1)
VH: B4 VH
VL: DIQMTQSPSSLSASVGDRVTITCRASQDISQYLNWYQQKPGKAPKLLIYYTSRLQSGVPSRFSGSGSGTDFTLTISSLQPEDFATYFCQQGNTWPPTFGQGTKLEIKRTVAAPSVFIFPPDIQMTQSPSSLSASVGDRVTISCRASQDIRNYLNWYQQKPGKAPKLLIFYTSKLHSGVPSRFSGSGSGTDYTLTISSLQPEDIATYYCQQGLTPPLTFGGGTKVEIKR
For B5, the “N-Terminal VD huTNFα Neutralization Assay IC50” value is 8 pM.

B6: DVD2787 (bispecific antibody, IgG1)
VH: EVQLVQSGAEVKKPGASVKVSCKASGYTFANYGIIWVRQAPGQGLEWMGWINTYTGKPTYAQKFQGRVTMTTDTSTSTAYMELSSLRSEDTAVYYCARKLFTTMDVTDNAMDYWGQGTTVTVSSASTKGPSVFPLAPEVTLRESGPGLVKPTQTLTLTCTLYGFSLSTSDMGVDWIRQPPGKGLEWLAHIWWDDVKRYNPALKSRLTISKDTSKNQVVLKLTSVDPVDTATYYCARTVSSGYIYYAMDYWGQGTLVTVSS
VL: B4 VL
Turning to B6, the “N-Terminal VD huTNFα Neutralization Assay IC50” value is 5 pM.

B7: DVD2783 (bispecific antibody, IgG1)
VH: EVQLVQSGAEVKKPGASVKVSCKASGYTFANYGIIWVRQAPGQGLEWMGWINTYTGKPTYAQKFQGRVTMTTDTSTSTAYMELSSLRSEDTAVYYCARKLFTTMDVTDNAMDYWGQGTTVTVSSGGGGSGGGGSEVTLRESGPGLVKPTQTLTLTCTLYGFSLSTSDMGVDWIRQPPGKGLEWLAHIWWDDVKRYNPALKSRLTISKDTSKNQVVLKLTSVDPVDTATYYCARTVSSGYIYYAMDYWGQGTLVTVSS
VL: DIQMTQSPSSLSASVGDRVTITCRASQDISQYLNWYQQKPGKAPKLLIYYTSRLQSGVPSRFSGSGSGTDFTLTISSLQPEDFATYFCQQGNTWPPTFGQGTKLEIKRGGSGGGGSGDIQMTQSPSSLSASVGDRVTISCRASQDIRNYLNWYQQKPGKAPKLLIFYTSKLHSGVPSRFSGSGSGTDYTLTISSLQPEDIATYYCQQGLTPPLTFGGGTKVEIKR
With B7, the “N-Terminal VD huTNFα Neutralization Assay IC50” value came out at 8 pM.

B8: DVD2788 (bispecific antibody, IgG1)
VH: EVTLRESGPGLVKPTQTLTLTCTLYGFSLSTSDMGVDWIRQPPGKGLEWLAHIWWDDVKRYNPALKSRLTISKDTSKNQVVLKLTSVDPVDTATYYCARTVSSGYIYYAMDYWGQGTLVTVSSGGGGSGGGGSEVQLVQSGAEVKKPGASVKVSCKASGYTFANYGIIWVRQAPGQGLEWMGWINTYTGKPTYAQKFQGRVTMTTDTSTSTAYMELSSLRSEDTAVYYCARKLFTTMDVTDNAMDYWGQGTTVTVSS
VL: DIQMTQSPSSLSASVGDRVTISCRASQDIRNYLNWYQQKPGKAPKLLIFYTSKLHSGVPSRFSGSGSGTDYTLTISSLQPEDIATYYCQQGLTPPLTFGGGTKVEIKRGGSGGGGSGDIQMTQSPSSLSASVGDRVTITCRASQDISQYLNWYQQKPGKAPKLLIYYTSRLQSGVPSRFSGSGSGTDFTLTISSLQPEDFATYFCQQGNTWPPTFGQGTKLEIKR
Take B8: the “C-Terminal VD huTNFα Neutralization Assay IC50” value turned out to be 0.23 nM.

B9: DVD2742 (bispecific antibody, IgG1)
VH: EVTLRESGPGLVKPTQTLTLTCTLYGFSLSTSDMGVDWIRQPPGKGLEWLAHIWWDDVKRYNPALKSRLTISKDTSKNQVVLKLTSVDPVDTATYYCARTVSSGYIYYAMDYWGQGTLVTVSSASTKGPSVFPLAPEVQLVESGGGLVQPGGSLRLSCAASGFTFSNYGVEWVRQAPGKGLEWVSGIWADGSTHYADTVKSRFTISRDNSKNTLYLQMNSLRAEDTAVYYCAREWQHGPVAYWGQGTLVTVSS
VL: DIQMTQSPSSLSASVGDRVTISCRASQDIRNYLNWYQQKPGKAPKLLIFYTSKLHSGVPSRFSGSGSGTDYTLTISSLQPEDIATYYCQQGLTPPLTFGGGTKVEIKRTVAAPDIQMTQSPSSLSASVGDRVTITCKASQLVSSAVAWYQQKPGKAPKLLIYWASTLHTGVPSRFSGSGSGTDFTLTISSLQPEDFATYYCQQHYRTPFTFGQGTKLEIKR
As to B9, the “C-Terminal VD huTNFα Neutralization Assay IC50” value is 0.129 nM.
